Changes are numbered by the printed parent chain.
Columns and labels:
Settings in all cases: protein: recombinant; chain copies: 2; single-stranded
TLR7 F507L = molecular target: T1, TLR7 F507L (Macaca mulatta, UniProt B3Y653 27-839, F507L); assay: SPR; mean computed from runs 16±2, 18±2, 20±6; SPR with recombinant TLR7/TLR8; buffer, pH and temperature not in the material
T1 sequence: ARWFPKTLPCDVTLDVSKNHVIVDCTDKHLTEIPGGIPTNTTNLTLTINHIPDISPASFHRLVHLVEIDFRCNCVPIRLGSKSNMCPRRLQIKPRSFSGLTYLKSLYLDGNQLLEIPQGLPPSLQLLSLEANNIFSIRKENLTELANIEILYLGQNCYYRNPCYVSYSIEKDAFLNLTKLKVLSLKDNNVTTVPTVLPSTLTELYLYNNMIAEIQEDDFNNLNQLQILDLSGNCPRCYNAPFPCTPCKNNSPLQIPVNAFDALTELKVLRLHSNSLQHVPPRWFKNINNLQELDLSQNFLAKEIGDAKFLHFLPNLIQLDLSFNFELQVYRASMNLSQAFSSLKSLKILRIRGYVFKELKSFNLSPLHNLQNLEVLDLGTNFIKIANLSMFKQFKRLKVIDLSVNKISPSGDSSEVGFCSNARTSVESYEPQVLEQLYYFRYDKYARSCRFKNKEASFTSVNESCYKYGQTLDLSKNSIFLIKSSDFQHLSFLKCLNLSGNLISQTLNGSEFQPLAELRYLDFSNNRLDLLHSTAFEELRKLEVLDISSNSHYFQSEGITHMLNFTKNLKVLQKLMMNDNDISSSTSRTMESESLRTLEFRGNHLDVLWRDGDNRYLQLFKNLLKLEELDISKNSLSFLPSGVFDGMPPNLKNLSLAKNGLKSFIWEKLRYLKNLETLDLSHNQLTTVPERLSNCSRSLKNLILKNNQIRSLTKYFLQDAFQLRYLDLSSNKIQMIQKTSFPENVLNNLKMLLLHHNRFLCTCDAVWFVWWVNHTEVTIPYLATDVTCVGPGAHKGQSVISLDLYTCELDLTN

TLR7 P435S = molecular target: T2, TLR7 P435S (Macaca mulatta, UniProt B3Y653 27-839, P435S); assay: SPR; mean computed from runs 5±0.6, 6±0.7, 6±0.7; SPR with recombinant TLR7/TLR8; buffer, pH and temperature not in the material
T2 sequence: T1 sequence with P409S, L481F

TLR7 T406S = molecular target: T3, TLR7 T406S (Macaca mulatta, UniProt B3Y653 27-839, T406S); assay: SPR; mean computed from runs 0.5±0.09, 0.6±0.1, 0.6±0.1; SPR with recombinant TLR7/TLR8; buffer, pH and temperature not in the material
T3 sequence: T1 sequence with T380S, L481F

B1: mGrUrC PS (XNA)
RNA: GUC
modifications: 2'-OMe G1, RNA U2 C3; phosphorothioate linkages
Binder B1 has a Kd (TLR7 F507L) of 18 µM, a Kd (TLR7 P435S) of 5.67 µM and a Kd (TLR7 T406S) of 0.57 µM.

From PMC13043311, “2′-O-Methyl-guanosine RNA fragments antagonize TLR7 and TLR8 to limit autoimmunity”
